B1: HDV Ribozyme (parent)
chain: GGCCGGCAUGGUCCCAGCCUCCUCGCUGGCGCCGGCUGGGCAACAUUCCGAGGGGACCGUCCCCUCGGUAAUGGCGAAUGGGACCCA

Variants of: B1
Experiment: self-cleavage, relative activity (ratio to wild type); higher = more cleavage; co-transcriptional

Variant | self-cleavage
A45C G53A | 0.564
A45C G53U | 0.712
A45C G52C | 0.752
A45C G52U | 0.697
A45C G52A | 0.684
A45C U69G | 0.974
A45C U69C | 0.623
C44U C84G | 0.404
A45G C58G | 1.14
A45G C58U | 0.906
C44U C63G | 0.594
C44U C63A | 0.819
A45U A77U | 0.322
A45U A77C | 0.155
A45U A77G | 0.609
A45C C86G | 0.465
A45C C86A | 0.95
C44G U60C | 0.569
C44G U60G | 0.76
C44G U60A | 0.798
C44U C64A | 0.408
C44U C64U | 0.876
A45G C49A | 0.872
A45G C49G | 0.831

Variant | self-cleavage
A45G C49U | 1.24
A45U C85A | 0.88
A45C G68A | 0.686
A45C G68C | 0.404
A45U A56G | 0.806
A45U A56U | 0.831
C44U G74U | 0.67
C44U G74A | 0.427
C44U G74C | 0.233
A45U U65A | 0.618
A45U U65C | 1.04
A45C U65A | 0.87
A45C U65C | 0.646
A45C A77C | 0.277
C44G G73A | 0.522
C44U G81U | 0.212
C44U G81C | 0.0923
A45G U47A | 1.13
C44U C61G | 0.786
C44U U79C | 0.269
C44U U79A | 0.688
A45G A51C | 0.987
A45U G73C | 0.62
A45U C63A | 0.784

Variant | self-cleavage
A45U C63U | 0.856
C44U A78U | 0.148
A45U C58U | 0.849
A45U C58G | 0.712
A45U G67U | 0.801
A45C C49U | 0.831
A45C C49G | 0.492
A45U G74A | 0.513
A45U G74C | 0.0923
A45U G59A | 1
A45U G59U | 0.903
A45U G59C | 0.969
A45G C64G | 0.591
A45G C64U | 0.889
C44G G76C | 0.511
C44G G76U | 1.03
C44G G76A | 0.8
A45G C84G | 0.623
A45G C84U | 0.658
A45G C84A | 0.587
C44U A71G | 0.95
C44U A71C | 0.851
C44U A71U | 0.972
A45G C48U | 0.978

Variant | self-cleavage
A45G C48G | 1.23
C44U C66U | 0.817
A45G A77C | 0.18
A45G A77G | 0.867
A45C | 0.702
A45G | 0.918
A45U | 0.832
C44G G55U | 0.65
C44G G55C | 0.898
A45C U60A | 0.883
A45C U60C | 0.573
A45C U60G | 0.63
C44G C58A | 1.07
C44G G81U | 0.271
C44G G81A | 0.277
A45U U69A | 0.77
A45U C49A | 0.748
A45U C49G | 0.458
A45G A70C | 0.88
A45G A70G | 0.997
A45G A70U | 1.09
C44G A77C | 0.297
C44G A77G | 0.665
U46A A51G | 0.739

Variant | self-cleavage
U46A A51C | 0.831
U46A A51U | 0.536
U46A | 0.794
C44G C66A | 0.692
A45U G54U | 0.8
A45U G54C | 0.849
C44U U60G | 0.686
C44U A45C | 0.739
C44U C58A | 1.07
C44G C85A | 0.525
C44G C85U | 0.892
C44G C85G | 0.831
C44U G54A | 0.872
C44G G68A | 0.677
C44G G68U | 0.399
C44G A78G | 0.246
C44G A78C | 0.193
A45G A78G | 0.617
A45G A78C | 0.237
C44G A87G | 0.641
C44G A87C | 0.621
A45U G82A | 0.162
A45U G82U | 0.529
C44U A87U | 0.718

Variant | self-cleavage
A45G G73U | 0.415
A45G G73C | 0.388
C44G G67U | 0.68
C44G G67A | 0.65
A45C U47A | 0.911
A45C A51C | 0.875
C44G G80C | 0.0405
C44U G68A | 0.681
C44U G68C | 0.529
C44U G68U | 0.607
A45C C57A | 0.504
A45C C57U | 0.73
A45G G68C | 0.767
C44U G82C | 0.0723
A45C C64U | 0.73
A45C C64A | 0.426
A45U G53U | 0.997
C44U C57G | 0.612
C44U C57U | 0.704
A45G A83U | 0.485
A45G A56U | 1.12
C44U G55A | 0.831
C44U G55C | 0.882
A45C G50U | 0.494

Variant | self-cleavage
A45C G50A | 0.785
A45C C66U | 0.8
A45C C66A | 0.684
C44G C75U | 0.0627
C44G C75G | 0.256
C44U C86U | 0.886
C44U C86A | 0.716
A45C A87U | 0.531
A45G U79A | 0.755
A45G U79C | 0.674
A45U C62A | 0.791
A45U C62U | 0.923
U46A A56G | 0.831
U46A A56U | 0.704
U46A A56C | 0.802
C44G U47A | 0.653
C44G U47C | 0.554
C44G U47G | 0.475
C44U G73C | 0.47
C44U G73U | 0.172
A45U C61U | 0.876
C44U G50U | 0.772
C44U G50C | 0.437
C44U G50A | 0.855

Variant | self-cleavage
C44G C61G | 0.441
A45C G76C | 0.68
A45C G76A | 0.869
A45U G50C | 0.767
A45U G50A | 0.844
C44U G52A | 0.831
C44U G52C | 0.806
A45C C84A | 0.655
A45C C84G | 0.297
A45C C84U | 0.499
A45U C48U | 0.79
A45U C48A | 0.7
A45G U60C | 0.831
C44G G74A | 0.523
C44G G74U | 0.318
A45U A70U | 0.989
A45U C86G | 0.795
A45U C86U | 0.95
A45U C86A | 0.77
A45C G74U | 0.369
C44U C62A | 0.665
C44G U69G | 0.443
C44U C49U | 0.96
C44U C49G | 0.935

Variant | self-cleavage
C44U C49A | 0.892
A45G G53U | 0.884
A45G G53C | 1.05
C44G C86A | 0.767
C44G C86G | 0.499
C44G C49A | 0.665
C44G C49U | 0.617
A45U G52C | 0.743
A45U G52A | 0.798
A45U G52U | 0.674
C44G C62U | 0.758
C44G C62G | 0.485
C44G G52C | 0.724
A45C A78U | 0.229
A45C A78G | 0.178
A45G A71U | 0.997
A45C C58G | 0.724
A45C G59C | 0.696
A45C G59A | 0.704
C44U | 0.803
C44U G67A | 0.82
C44U U65C | 0.61
C44U U65A | 0.846
A45G C75G | 0.0536

Variant | self-cleavage
A45G C75U | 0.208
A45G C75A | 0.249
A45C G55C | 0.48
A45C A71G | 1.11
A45C A71U | 1.09
A45G C86G | 0.95
A45G C86A | 0.639
A45G C61A | 1.15
A45G C61G | 0.467
A45G C61U | 0.888
A45U C57U | 0.712
C44U U46C | 0.571
C44U U46G | 0.712
A45C G67U | 0.604
A45C G81A | 0.0959
A45C G81U | 0.262
A45C U46G | 0.554
A45C U46C | 0.403
A45C C85A | 0.437
A45C C85U | 0.437
A45G A87G | 0.868
A45G A87C | 1.11
A45C U72C | 0.481
C44G C57U | 0.745

Variant | self-cleavage
C44G C57G | 0.458
C44G C57A | 0.944
A45U U47G | 0.867
A45U U47A | 0.973
A45U U47C | 0.772
C44U G76U | 0.847
A45U U60C | 0.911
A45U U60A | 0.723
C44G A56G | 0.886
C44G A56C | 0.745
C44G C64G | 0.678
C44G A83C | 0.284
C44G A83U | 0.38
A45U A83U | 0.128
A45U A83C | 0.0875
C44U C48G | 0.567
C44U U69G | 0.957
A45G G55C | 1.04
A45G G55A | 1.08
A45G G55U | 0.888
A45U U46A | 0.639
A45G G82C | 0.391
A45G G82A | 0.415
C44U G59C | 0.997

Variant | self-cleavage
C44U U72G | 0.665
A45G C62G | 0.587
C44G A70C | 0.831
C44G A70G | 0.525
A45G G67C | 0.54
A45U C64U | 0.764
A45U C64A | 0.882
A45G G59C | 1.02
A45G G59U | 0.931
C44G G59U | 0.81
C44G G59C | 0.95
C44U A51C | 0.931
C44U A51G | 1.04
C44U A51U | 0.789
A45U G55A | 0.594
C44G A71C | 0.76
C44U G80C | 0.242
C44U A77U | 0.111
C44U A83U | 0.208
C44U A83G | 0.48
A45G G76A | 0.959
A45G G76C | 1.07
C44G A51U | 0.591
A45U U72G | 0.755

Variant | self-cleavage
A45C G73C | 0.424
A45U G68U | 0.845
A45G C57U | 1.11
C44G C84G | 0.375
C44G C84U | 0.53
C44G C84A | 0.394
A45C G54C | 0.653
A45C G54U | 0.95
A45G G54U | 1.17
A45C A56U | 0.629
A45G G80A | 0.177
A45U C75A | 0.277
A45U C75U | 0.321
A45U C75G | 0.133
A45U A78G | 0.571
C44G G82C | 0.0504
C44G G82A | 0.309
A45U A71U | 1.01
A45U A71C | 0.653
C44G C63U | 0.81
C44G C63A | 0.491
A45U U79C | 0.26
A45U U79A | 0.192
A45C C75G | 0.237

Variant | self-cleavage
A45C C75A | 0
A45C C75U | 0.201
C44G U65A | 0.443
C44G U46G | 0.609
C44G U46C | 0.748
C44G C48U | 0.517
C44G C48A | 0.543
C44G U72A | 0.229
C44G U72G | 0.446
A45U G80U | 0.153
A45C G82C | 0.256
A45C G82U | 0.397
C44G U79C | 0.297
C44U A70C | 0.831
U46A A70C | 0.831
U46A A70G | 1.01
A45G G74U | 0.543
A45G U72G | 0.68
C44G G53U | 0.939
C44G G54U | 0.609
A45U A51C | 0.796
A45U A51G | 0.965

— the RNAGym collection of RNA variant scans (doi:10.7554/elife.80360)
